# Reference: patent publication US5928933A, “Process for the enzymatic resolution of N-(alkoxycarbonyl)-4-ketoproline alkyl esters or N-(alkoxycarbonyl)-4-hydroxyproline alkyl esters using Candida antarctica lipase B” (priority 1998, dated 1999)
# B1: protease, type X: commercial enzyme preparation, source B. thermoproteoliticus rokko (protein, UniProt P00800 233-548, looked up)
# Thermolysin: ITGTSTVGVGRGVLGDQKNINTTYSTYYYLQDNTRGNGIFTYDAKYRTTLPGSLWADADNQFFASYDAPAVDAHYYAGVTYDYYKNVHNRLSYDGNNAAIRSSVHYSQGYNNAFWNGSQMVYGDGDGQTFIPLSGGIDVVAHELTHAVTDYTAGLIYQNESGAINEAISDIFGTLVEFYANKNPDWEIGEDVYTPGISGDSLRSMSDPAKYGDPDHYSKRYTGTQDNGGVHINSGIINKAAYLISQGGTHYGVSVVGIGRDKLGKIFYRALTQYLTPTSNFSQLRAAAVQSATDLYGSTSQEVASVKQAFDAVGVK
# B2: protease, trypsin porcine pancreas: commercial trypsin, source porcine pancreas (protein, UniProt P00761 9-231, looked up)
# Trypsin: IVGGYTCAANSIPYQVSLNSGSHFCGGSLINSQWVVSAAHCYKSRIQVRLGEHNIDVLEGNEQFINAAKIITHPNFNGNTLDNDIMLIKLSSPATLNSRVATVSLPRSCAAAGTECLISGWGNTKSSGSSYPSLLQCLKAPVLSDSSCKSSYPGQITGNMICVGFLEGGKDSCQGDSGGPVVCNGQLQGIVSWGYGCAQKNKPGVYTKVCNYVNWIQQTIAAN
# B3: protease, type XXVII: commercial enzyme preparation, (Nagarase) (protein, UniProt P00782 108-382, looked up)
# Subtilisin BPN': AQSVPYGVSQIKAPALHSQGYTGSNVKVAVIDSGIDSSHPDLKVAGGASMVPSETNPFQDNNSHGTHVAGTVAALNNSIGVLGVAPSASLYAVKVLGADGSGQYSWIINGIEWAIANNMDVINMSLGGPSGSAALKAAVDKAVASGVVVVAAAGNEGTSGSSSTVGYPGKYPSVIAVGAVDSSNQRASFSSVGPELDVMAPGVSIQSTLPGNKYGAYNGTSMASPHVAGAAALILSKHPNWTNTQVRSSLENTTTKLGDSFYYGKGLINVQAAAQ
# B4: protease, type XXIV: commercial enzyme preparation, source bacterial (subtil. Carlsberg) (protein, UniProt P00780 106-379, looked up)
# Subtilisin Carlsberg: AQTVPYGIPLIKADKVQAQGFKGANVKVAVLDTGIQASHPDLNVVGGASFVAGEAYNTDGNGHGTHVAGTVAALDNTTGVLGVAPSVSLYAVKVLNSSGSGSYSGIVSGIEWATTNGMDVINMSLGGASGSTAMKQAVDNAYAKGVVVVAAAGNSGSSGNTNTIGYPAKYDSVIAVGAVDSNSNRASFSSVGAELEVMAPGAGVYSTYPTNTYATLNGTSMASPHVAGAAALILSKHPNLSASQVRNRLSSTATYLGSSFYYGKGLINVEAAAQ
# B5: protease (Chirazyme P1): commercial enzyme preparation, source Bacillus licheniformis (protein, UniProt P00780 106-379, looked up)
# Subtilisin Carlsberg: B4 Subtilisin Carlsberg
# Test: Enzyme screens for resolution of racemic N-(methoxycarbonyl)-4-keto-D,L-proline methyl ester (Example 1)
# Type: biochemical
# Details: 0.100M racemate; 0.20M sodium succinate pH 6.0, 5 h or 0.20M sodium acetate pH 5.0, 24 h; 5.0 to 50 mg/mL enzyme; 25° C.; optimum
# Description: (§1) An aqueous solution (1.0 mL) containing 0.100M racemic N-(methoxycarbonyl)-4-keto-D,L-proline methyl ester in either 0.20M sodium succinate (pH 6.0) or 0.20M sodium acetate (pH 5.0) was mixed with 5.0 to 50 mg/mL of commercial enzyme preparations (listed in the table below) at 25° C. […] The dichloromethane extract was then analyzed by chiral gas chromatography on a Chiraldex G-TA column (Advanced Separation Technologies, Inc., 50 m×0.32 mm ID) to determine the percent conversion of the racemate, and the enantiomeric excess of the N-(methoxycarbonyl)-4-keto-D-proline methyl ester.
row,Molecule,conv. (percent conversion of the racemate) [%]
1,"protease, chymopapain: commercial enzyme preparation, source papaya latex",0
2,"protease, pepsin: commercial enzyme preparation, source porcine stomach mucosa",0
3,B1,0
4,B2,0
5,B3,27
6,B4,17
7,B5,54

# Same assay, conditions: 0.100M racemate; pH 6.0, 5 h or pH 5.0, 24 h; 5.0 to 50 mg/mL enzyme; 25° C.; optimum
row,Molecule,% ee (enantiomeric excess of the D-isomer; L-isomer with porcine liver esterase) [%]
1,"protease, chymopapain: commercial enzyme preparation, source papaya latex",0
2,"protease, pepsin: commercial enzyme preparation, source porcine stomach mucosa",0
3,B1,0
4,B2,0
5,B3,21
6,B4,18
7,B5,65

# Test: Enzyme screens for resolution of racemic N-(acetyl)-4-keto-D,L-proline methyl ester (Example 7, comparative)
# Type: biochemical
# Details: 0.100M racemate; 0.20M sodium succinate pH 6.0; 5 h; 5.0 to 30 mg/mL enzyme; 25° C.
# Description: as §1, with “racemic N-(acetyl)-4-keto-D,L-proline” for “racemic N-(methoxycarbonyl)-4-keto-D,L-proline”, “in” for “in either”, “6.0)” for “6.0) or 0.20M sodium acetate (pH 5.0)”, “to 30” for “to 50”, “the N-(acetyl)-4-keto-D-proline” for “the N-(methoxycarbonyl)-4-keto-D-proline”
row,Molecule,conv. (percent conversion of the racemate) [%]
1,"protease, chymopapain: commercial enzyme preparation, source papaya latex",0
2,"protease, pepsin: commercial enzyme preparation, source porcine stomach mucosa",0
3,B1,0
4,B2,0
5,B5,43

# Same assay, conditions: 0.100M racemate; pH 6.0; 5 h; 5.0 to 30 mg/mL enzyme; 25° C.
row,Molecule,% ee (enantiomeric excess of the D-isomer) [%]
1,"protease, chymopapain: commercial enzyme preparation, source papaya latex",0
2,"protease, pepsin: commercial enzyme preparation, source porcine stomach mucosa",0
3,B1,0
4,B2,0
5,B5,37

# Test: Enzyme screens for resolution of diastereomeric mixture CHDP(MEMC)/THLP(MEMC) (Example 9)
# Type: biochemical
# Details: 0.050M each isomer; 0.100M potassium phosphate pH 7.0; 5 h or 24 h; 5.0 to 50 mg/mL enzyme; 25° C.
# Description: (§2) An aqueous solution (1.0 mL) containing 0.050M N-(methoxycarbonyl)-trans-4-hydroxy-L-proline methyl ester and 0.050M N-(methoxycarbonyl)-cis-4-hydroxy-D-proline methyl ester in 0.100M potassium phosphate (pH 7.0) was mixed with 5.0 to 50 mg/mL of commercial enzyme preparations (listed in the table below) at 25° C. The reactions were analyzed after 5 h or 24 h by removal of a 0.200 mL sample and mixing with an equivalent volume of 0.100M propionic acid (HPLC internal standard) in water. The resulting solution was filtered through a 10K molecular weight cut-off filter to remove the enzyme and the filtrate analyzed by high pressure liquid chromatography on a HPX-87H column (Bio-Rad, 30 cm×7.8 mm) to determine the percent conversion of each isomer of the diastereomeric mixture, and the diastereomeric excess of the N-(methoxycarbonyl)-cis-4-hydroxy-D-proline methyl ester.
row,Molecule,conv. (percent conversion of the diastereomeric mixture) [%]
1,"protease, chymopapain: commercial enzyme preparation, source papaya latex",0
2,"protease, pepsin: commercial enzyme preparation, source porcine stomach mucosa",0
3,B1,0
4,B2,0
5,B3,2
6,B4,16
7,B5,28

# Same assay, conditions: 0.050M each isomer; pH 7.0; 5 h or 24 h; 5.0 to 50 mg/mL enzyme; 25° C.
row,Molecule,"% de (diastereomeric excess of the D-isomer, CHDP(MEMC)) [%]"
1,"protease, chymopapain: commercial enzyme preparation, source papaya latex",0
2,"protease, pepsin: commercial enzyme preparation, source porcine stomach mucosa",0
3,B1,0
4,B2,0
5,B3,4
6,B4,16
7,B5,26

# Test: Enzyme screens for resolution of diastereomeric mixture CHLP(MEMC)/THLP(MEMC) (Example 13)
# Type: biochemical
# Details: 0.050M each isomer; 0.100M potassium phosphate pH 7.0; 5 h; 5.0 to 50 mg/mL enzyme; 25° C.
# Description: as §2, with “solution” for “solution (1.0 mL)”, “N-(methoxycarbonyl)-cis-4-hydroxy-L-proline” for “N-(methoxycarbonyl)-cis-4-hydroxy-D-proline”, “5” for “5 h or 24”, “of” for “of each isomer of”
row,Molecule,conv. (percent conversion of the diastereomeric mixture) [%]
1,"protease, chymopapain: commercial enzyme preparation, source papaya latex",0
2,"protease, pepsin: commercial enzyme preparation, source porcine stomach mucosa",0
3,B1,0
4,B2,0
5,B3,17
6,B4,6
7,B5,25

# Same assay, conditions: 0.050M each isomer; pH 7.0; 5 h; 5.0 to 50 mg/mL enzyme; 25° C.
row,Molecule,% de (diastereomeric excess of the cis-L-isomer) [%]
1,"protease, chymopapain: commercial enzyme preparation, source papaya latex",0
2,"protease, pepsin: commercial enzyme preparation, source porcine stomach mucosa",0
3,B1,0
4,B2,0
5,B3,16
6,B4,5
7,B5,31

# Test: Enzyme screens for resolution of racemic N-(methoxycarbonyl)-4,4-dimethoxy-D,L-proline methyl ester (Example 8, comparative)
# Type: biochemical
# Details: 0.100M racemate; 0.25M potassium phosphate pH 7.0; 6 h or 17 h; 5.0 to 30 mg/mL enzyme; 25° C.
# Description: An aqueous solution (1.0 mL) containing 0.100M racemic N-(methoxycarbonyl)-4,4-dimethoxy-D,L-proline methyl ester in 0.25M potassium phosphate (pH 7.0) was mixed with 5.0 to 30 mg/mL of commercial enzyme preparations (listed in the table below) at 25° C. […] The ethyl acetate extract was then analyzed by chiral gas chromatography on a Chiraldex G-TA column (Advanced Separation Technologies, Inc., 50 m×0.32 mm ID) to determine the percent conversion of the racemate, and the enantiomeric excess of N-(methoxycarbonyl)-4,4-dimethoxy-D-prolinemethyl ester.
row,Molecule,conv. (percent conversion of the racemate) [%]
1,B3,44
2,B4,42
3,B5,44

# Same assay, conditions: 0.100M racemate; pH 7.0; 6 h or 17 h; 5.0 to 30 mg/mL enzyme; 25° C.
row,Molecule,% ee (enantiomeric excess of the D-isomer) [%]
1,B3,30
2,B4,22
3,B5,22
